Reference: the supplement of paper PMC10724198
± gives the standard deviation of the averaged measurements.

How the values were obtained:
Saccharomyces cerevisiae [1] = test: protein stability index of tFT-peptide fusion in wild type (PSI (0-1 scale)); higher = more stable (slower turnover); details: genetic background: wild type
Procedure: (§1)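 MPS profiling in S. cerevisiae of two library types built from selected 12-aa C-degron peptides (IN1, IN2, LN1, LN3, VN2, R1-R5, W1-W3, Atg1 and Rpa12 C-termini): saturation mutagenesis libraries and C-terminal +1 capping libraries (13 aa). Each peptide is fused to the C-terminus of a sfGFP-mCherry timer, after a GGGS linker. Cells are FACS-sorted into 8 mCherry/sfGFP bins and sequenced. PSI runs from 0 (unstable) to 1 (stable), measured once in wild type and in the das1Δ or doa10Δ background.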

Saccharomyces cerevisiae [2] = test: protein stability index of tFT-peptide fusion in deletion strain of DAS1 (PSI (0-1 scale)); higher = more stable (slower turnover)
Procedure: as §1

Saccharomyces cerevisiae [3] = test: protein stability index of tFT-peptide fusion (C-terminal peptide) (PSI (0-1 scale)); higher = more stable (slower turnover); details: temperature: 30 C
Procedure: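 MPS profiling in S. cerevisiae of the yeast C-terminome library: the last 12 aa of each annotated ORF are fused to the C-terminus of a sfGFP-mCherry timer, after a GGGS linker. Cells are FACS-sorted into 8 mCherry/sfGFP bins and deep-sequenced. PSI runs from 0 (unstable) to 1 (stable); wild type and das1Δ backgrounds, two technical replicates each.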
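Throughout, for protein stability index of tFT-peptide fusion in deletion strain of DAS1: PSI is a weighted mean of each variant's read distribution over the sorted stability bins, computed only for variants having over 10 reads in total.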
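Throughout, for protein stability index of tFT-peptide fusion in wild type: PSI derived as read-weighted mean over the 8 sorting bins, only variants exceeding 10 total reads kept, mCherry placed adjacent to the peptide and sfGFP distal.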

Row | Sequence | protein stability index (Saccharomyces cerevisiae [1]) | protein stability index (Saccharomyces cerevisiae [2]) | protein stability index (Saccharomyces cerevisiae [3]; genetic background: das1 deletion) | protein stability index (Saccharomyces cerevisiae [3]; genetic background: wild type)
1 | AEWRVGLWRGAS | 0.528 | 0.689 | – | –
2 | AHWRVGLWRGAS | 0.43 | 0.688 | – | –
3 | ARIRVGLWRGAS | 0.599 | 0.686 | – | –
4 | ARRRVGLWRGAS | 0.538 | 0.723 | – | –
5 | ARWLVGLWRGAS | 0.419 | 0.706 | – | –
6 | ARWRDGLWRGAS | 0.651 | 0.692 | – | –
7 | ARWRVELWRGAS | 0.203 | 0.665 | – | –
8 | ARWRVGAWRGAS | 0.427 | 0.688 | – | –
9 | ARWRVGLVRGAS | 0.614 | 0.663 | – | –
10 | ARWRVGLWHGAS | 0.624 | 0.665 | – | –
11 | ARWRVGLWKGAS | 0.64 | 0.671 | – | –
12 | ARWRVGLWQGAS | 0.602 | 0.578 | – | –
13 | ARWRVGLWRGASG | 0.662 | 0.674 | – | –
14 | ARWRVGLWRGASP | 0.663 | 0.672 | – | –
15 | ARWRVGLWRKAS | 0.1 | 0.672 | – | –
16 | ARWRVGLWRWAS | 0.0999 | 0.694 | – | –
17 | ARWRVGSWRGAS | 0.641 | 0.692 | – | –
18 | ARWRVQLWRGAS | 0.287 | 0.689 | – | –
19 | ARWRVVLWRGAS | 0.517 | 0.621 | – | –
20 | CHSCGYKFRTNN | 0.212 | 0.715 | – | –
21 | CNSCGYKFRTNN | 0.193 | 0.702 | – | –

Row | Sequence | protein stability index (Saccharomyces cerevisiae [1]) | protein stability index (Saccharomyces cerevisiae [2]) | protein stability index (Saccharomyces cerevisiae [3]; genetic background: das1 deletion) | protein stability index (Saccharomyces cerevisiae [3]; genetic background: wild type)
22 | CQSCGYKFRTNN | 0.248 | 0.7 | – | –
23 | CRWRVGLWRGAS | 0.276 | 0.697 | – | –
24 | CSMRWTFRYWVN | 0.0623 | 0.573 | – | –
25 | CTLCGYKFRTNN | 0.278 | 0.72 | – | –
26 | CTSCGEKFRTNN | 0.523 | 0.666 | – | –
27 | CTSCGIKFRTNN | 0.376 | 0.688 | – | –
28 | CTSCGPKFRTNN | 0.598 | 0.674 | – | –
29 | CTSCGYKDRTNN | 0.634 | 0.702 | – | –
30 | CTSCGYKFGTNN | 0.688 | 0.693 | – | –
31 | CTSCGYKFRPNN | 0.727 | 0.714 | – | –
32 | CTSCGYKFRTLN | 0.132 | 0.696 | – | –
33 | CTSCGYKFRTNL | 0.652 | 0.703 | – | –
34 | CTSCGYKFRTNNC | 0.708 | 0.673 | – | –
35 | CTSCGYKFRTNNT | 0.692 | 0.689 | – | –
36 | CTSCGYKFVTNN | 0.495 | 0.692 | – | –
37 | CTSCGYKTRTNN | 0.632 | 0.679 | – | –
38 | CTSCGYKVRTNN | 0.388 | 0.693 | – | –
39 | CTSCGYLFRTNN | 0.348 | 0.698 | – | –
40 | CTSCGYYFRTNN | 0.283 | 0.697 | – | –
41 | CTSCLYKFRTNN | 0.185 | 0.675 | – | –
42 | CTSGGYKFRTNN | 0.551 | 0.673 | – | –

Row | Sequence | protein stability index (Saccharomyces cerevisiae [1]) | protein stability index (Saccharomyces cerevisiae [2]) | protein stability index (Saccharomyces cerevisiae [3]; genetic background: das1 deletion) | protein stability index (Saccharomyces cerevisiae [3]; genetic background: wild type)
43 | CTSNGYKFRTNN | 0.381 | 0.674 | – | –
44 | CTSWGYKFRTNN | 0.137 | 0.744 | – | –
45 | CTWCGYKFRTNN | 0.224 | 0.685 | – | –
46 | DKILRQKMNHQN | 0.121 | 0.672 | – | –
47 | ERGAVGGWRLVG | 0.168 | 0.675 | – | –
48 | ESMRWTFRYWVN | 0.0849 | 0.56 | – | –
49 | FSGRWTFRYWVN | 0.0867 | 0.626 | – | –
50 | FSMRGTFRYWVN | 0.106 | 0.608 | – | –
51 | FSMRHTFRYWVN | 0.0782 | 0.588 | – | –
52 | FSMRQTFRYWVN | 0.0909 | 0.558 | – | –
53 | FSMRWKFRYWVN | 0.0643 | 0.577 | – | –
54 | FSMRWTARYWVN | 0.0802 | 0.513 | – | –
55 | FSMRWTFRKWVN | 0.314 | 0.634 | – | –
56 | FSMRWTFRYCVN | 0.088 | 0.492 | – | –
57 | FSMRWTFRYMVN | 0.0804 | 0.577 | – | –
58 | FSMRWTFRYWLN | 0.0521 | 0.486 | – | –
59 | FSMRWTFRYWMN | 0.07 | 0.485 | – | –
60 | FSMRWTFRYWSN | 0.313 | 0.538 | – | –
61 | FSMRWTFRYWVE | 0.502 | 0.473 | – | –
62 | FSMRWTFRYWVG | 0.422 | 0.476 | – | –
63 | FSMRWTFRYWVNC | 0.114 | 0.508 | – | –

Row | Sequence | protein stability index (Saccharomyces cerevisiae [1]) | protein stability index (Saccharomyces cerevisiae [2]) | protein stability index (Saccharomyces cerevisiae [3]; genetic background: das1 deletion) | protein stability index (Saccharomyces cerevisiae [3]; genetic background: wild type)
64 | FSMRWTFRYWVNI | 0.134 | 0.527 | – | –
65 | FSMRWTFRYWVT | 0.225 | 0.469 | – | –
66 | FSMRWTFRYWYN | 0.149 | 0.48 | – | –
67 | FSMRWTFYYWVN | 0.0564 | 0.418 | – | –
68 | FSMRWTWRYWVN | 0.0598 | 0.625 | – | –
69 | FSPRWTFRYWVN | 0.075 | 0.59 | – | –
70 | FSSRWTFRYWVN | 0.1 | 0.604 | – | –
71 | FVVYLSCVACIN | 0.0218 | 0.0242 | – | –
72 | FWMRWTFRYWVN | 0.0402 | 0.379 | – | –
73 | HSMRWTFRYWVN | 0.0543 | 0.586 | – | –
74 | HVVYLSCVACIN | 0.0139 | 0.0397 | – | –
75 | IKILRQKMNHQN | 0.177 | 0.659 | – | –
76 | KKEKKGQKQKIN | 0.0774 | 0.578 | – | –
77 | KKFKKGQKQKIN | 0.129 | 0.575 | – | –
78 | KKHKCGQKQKIN | 0.0807 | 0.582 | – | –
79 | KKHKKAQKQKIN | 0.06 | 0.601 | – | –
80 | KKHKKCQKQKIN | 0.0395 | 0.548 | – | –
81 | KKHKKGQKAKIN | 0.241 | 0.611 | – | –
82 | KKHKKGQKGKIN | 0.563 | 0.584 | – | –
83 | KKHKKGQKKKIN | 0.523 | 0.576 | – | –
84 | YTNLIASKVKKQ [YKL177W C-terminal 12 aa] | – | – | 0.714 ± 0.036 | 0.6504 ± 0.0044
